Experimental findings from PMC4491180, “Grb2 monomer–dimer equilibrium determines normal versus oncogenic function” (Nature Communications, 2015) are described below.

Where no end group is shown, it is not given here. [ ]: non-standard residue; d: D form. pY = N[C@@H](Cc1ccc(OP(=O)(O)O)cc1)C(=O)O

In assay [1] the target is T1, bacterial GFP-tagged Grb2 on GFP-trap beads (smFLIM) (UniProt P62993 1-217).
T1 construct: full-length Grb2; The second copy (FRET acceptor, added in solution) carried RFP (mRFP) instead of GFP; By the order of the cloning sites the fluorescent protein lies before Grb2; pET28a cut at NdeI may add an N-terminal His tag (surmised); also called GFP–Grb2; RFP–Grb2; source: E. coli (pET28a construct)
T1 sequence (P62993 whole entry): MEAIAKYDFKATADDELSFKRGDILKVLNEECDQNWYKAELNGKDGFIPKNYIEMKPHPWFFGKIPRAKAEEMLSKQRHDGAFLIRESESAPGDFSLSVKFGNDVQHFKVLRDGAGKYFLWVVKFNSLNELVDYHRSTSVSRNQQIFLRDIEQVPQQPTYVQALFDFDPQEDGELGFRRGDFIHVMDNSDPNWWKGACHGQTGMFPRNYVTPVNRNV
The assay is described as follows: FRET or BRET; smFLIM: GFP–Grb2 on GFP-trap beads, RFP–Grb2 added for 1 h, 20 mM Tris-HCl, 50 mM NaCl, pH 8.0; then 10 μM phospho-Shc peptide for an hour. The note with it: both partners purified.

Assay [2] addresses T2, wild-type Grb2 (growth factor receptor-bound protein 2), bacterially expressed and purified (UniProt P62993 1-217, Atto488 on the N-terminus of the labelled copy (100 nM); the titrated copy unlabelled).
T2 construct: cloned into a modified pET28a with a TEV site; also called ^WTGrb2; dGrb2
In words: MST; monomer–dimer equilibrium of Grb2 in the presence of a saturating concentration of pShc peptide. The note with it: both partners purified.

T2 sequence (P62993 whole entry): as above

B1: phospho-Shc peptide (peptide)
peptide: EEPPDHQ[pY]YNDFPGK
notes: Printed as EEPPDHQ(pY)YN-DFPGK; also called pShc; source: synthetic peptide, bought: GenScript
As for B1, the binding result in assay [1] and in assay [2] was “binds” in each case.
